According to patent US20260015426A1 (23ANDME, published 2026):

Experiments:
[1] = biological target: T1, hu-M-IL1RAP construct, positions S21-T367 (extracellular domain of the membrane form of human IL1RAP) (human, UniProt Q9NPH3 21-367); experiment: SPR, IgG analyte (apparent), pH 7.4, 37 C
T1 construct: Biotinylated when captured on the Biacore chip
T1 sequence: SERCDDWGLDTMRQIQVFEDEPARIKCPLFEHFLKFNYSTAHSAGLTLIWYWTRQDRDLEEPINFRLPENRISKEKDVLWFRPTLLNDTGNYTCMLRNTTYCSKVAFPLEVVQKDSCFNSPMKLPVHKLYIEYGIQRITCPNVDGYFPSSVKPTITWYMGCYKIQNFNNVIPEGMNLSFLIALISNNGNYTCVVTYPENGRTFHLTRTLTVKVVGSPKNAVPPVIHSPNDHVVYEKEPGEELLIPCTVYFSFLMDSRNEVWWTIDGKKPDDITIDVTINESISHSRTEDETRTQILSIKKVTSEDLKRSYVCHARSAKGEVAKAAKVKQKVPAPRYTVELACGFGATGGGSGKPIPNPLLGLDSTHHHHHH

[2] = biological target: T2, cyno-M-IL1RAP construct, positions S21-T367 (cynomolgus monkey, UniProt P59822 21-367 (rhesus entry)); experiment: SPR, IgG analyte (apparent), pH 7.4, 37 C
T2 construct: Biotinylated when captured on the Biacore chip; also called cy-M-IL1RAP
T2 sequence: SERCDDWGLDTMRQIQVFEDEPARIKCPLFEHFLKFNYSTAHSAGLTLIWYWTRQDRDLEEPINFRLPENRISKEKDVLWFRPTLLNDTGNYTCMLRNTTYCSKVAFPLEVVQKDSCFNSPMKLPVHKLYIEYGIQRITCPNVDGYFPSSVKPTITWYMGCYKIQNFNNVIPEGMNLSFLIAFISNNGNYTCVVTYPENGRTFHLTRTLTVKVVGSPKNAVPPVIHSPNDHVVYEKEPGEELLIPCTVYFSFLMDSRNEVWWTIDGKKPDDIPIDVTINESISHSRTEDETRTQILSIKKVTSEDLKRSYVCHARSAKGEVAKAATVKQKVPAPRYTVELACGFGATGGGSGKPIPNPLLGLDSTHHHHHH

[3] = biological target: T1, hu-M-IL1RAP construct, positions …; experiment: SPR, IgG analyte (apparent), 37 C, pH 7.4
[4] = biological target: T2, cyno-M-IL1RAP construct, positions …; experiment: SPR, IgG analyte (apparent), 37 C, pH 7.4
[5] = biological target: T3, biotinylated human FcRn (Acro biosystems, catalogue number FCN-H52W7) (human, UniProt P55899 24-297; P61769 21-119, biotinylated); experiment: SPR steady state, FcRn captured, 25 C, pH 6.0; pH 6.0
T3 construct: Bought reagent; also called hu-FcRn

[6] = biological target: T4, biotinylated cyno FcRn (Acro biosystems, catalogue number FCM-C5284) (cynomolgus monkey, UniProt Q8SPV9 24-297; Q8SPW0 21-119, limits assumed, biotinylated); experiment: as above
T4 construct: Bought reagent

[7] = biological target: T5, human IL1RAP (hu-IL1RAP) on human cells (human, UniProt Q9NPH3 21-570); experiment: cell-based or functional assay
T5 sequence: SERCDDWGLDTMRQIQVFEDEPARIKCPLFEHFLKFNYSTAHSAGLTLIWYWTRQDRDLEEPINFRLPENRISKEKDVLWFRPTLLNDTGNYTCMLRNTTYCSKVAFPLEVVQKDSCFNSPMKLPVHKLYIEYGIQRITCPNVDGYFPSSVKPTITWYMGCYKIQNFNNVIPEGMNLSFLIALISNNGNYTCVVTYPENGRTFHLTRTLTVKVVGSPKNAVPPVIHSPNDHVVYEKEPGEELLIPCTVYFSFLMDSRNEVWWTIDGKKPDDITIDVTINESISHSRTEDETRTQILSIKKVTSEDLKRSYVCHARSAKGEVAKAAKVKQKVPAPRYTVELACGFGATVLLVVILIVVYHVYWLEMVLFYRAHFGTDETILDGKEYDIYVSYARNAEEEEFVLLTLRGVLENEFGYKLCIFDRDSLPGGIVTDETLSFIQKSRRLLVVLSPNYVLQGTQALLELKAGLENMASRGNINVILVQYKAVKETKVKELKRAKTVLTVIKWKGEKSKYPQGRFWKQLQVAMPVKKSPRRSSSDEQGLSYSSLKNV

[8] = biological target: T1, hu-M-IL1RAP construct, positions …; experiment: SPR, IgG analyte (apparent), 37 C, pH 6
[9] = biological target: T2, cyno-M-IL1RAP construct, positions …; experiment: SPR, IgG analyte (apparent), 37 C, pH 6
[10] = biological target: T1, hu-M-IL1RAP construct, positions …; experiment: SPR, 37 C
[11] = biological target: T2, cyno-M-IL1RAP construct, positions …; experiment: SPR, 37 C
[12] = biological target: T5, human IL1RAP (hu-IL1RAP) on human cells; experiment: cell-based or functional assay; remark: listed apart in the source

T3 sequence (P55899 24-297 limits assumed, chain 1 of 2): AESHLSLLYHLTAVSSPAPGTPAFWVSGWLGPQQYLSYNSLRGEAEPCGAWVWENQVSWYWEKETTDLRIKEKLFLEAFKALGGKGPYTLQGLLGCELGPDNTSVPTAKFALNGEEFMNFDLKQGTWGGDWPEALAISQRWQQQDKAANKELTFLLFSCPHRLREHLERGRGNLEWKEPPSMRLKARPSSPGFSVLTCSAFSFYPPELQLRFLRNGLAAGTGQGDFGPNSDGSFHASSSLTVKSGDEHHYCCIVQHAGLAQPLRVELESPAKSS
T3 sequence (P61769 21-119 limits assumed, chain 2 of 2): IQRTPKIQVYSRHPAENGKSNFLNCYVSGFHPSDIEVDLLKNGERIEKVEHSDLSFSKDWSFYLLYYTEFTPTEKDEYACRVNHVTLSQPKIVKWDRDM

B1: h11C5 variant K17/H2 IgG (YKD) (antibody)
heavy: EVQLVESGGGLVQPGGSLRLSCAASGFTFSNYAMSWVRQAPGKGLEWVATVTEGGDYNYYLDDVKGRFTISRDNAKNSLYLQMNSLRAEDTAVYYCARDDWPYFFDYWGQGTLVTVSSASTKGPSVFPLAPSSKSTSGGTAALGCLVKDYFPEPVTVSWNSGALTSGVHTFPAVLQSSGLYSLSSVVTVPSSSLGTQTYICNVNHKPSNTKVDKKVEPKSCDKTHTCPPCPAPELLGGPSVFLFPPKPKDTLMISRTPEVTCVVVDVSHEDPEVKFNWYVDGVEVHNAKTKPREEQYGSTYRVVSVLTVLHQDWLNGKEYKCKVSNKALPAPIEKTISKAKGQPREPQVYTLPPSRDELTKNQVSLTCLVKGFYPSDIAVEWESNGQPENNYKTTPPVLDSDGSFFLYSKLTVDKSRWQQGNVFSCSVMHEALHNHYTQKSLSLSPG
light: DIQMTQSPSSLSASVGDRVTITCRASENIYSNLAWYQQKPGKSPKLLVYGYKNLADGVPSRFSGSGSGTDYTLTISSLQPEDFATYYCQHFKTTPRTFGGGTKVEIKRTVAAPSVFIFPPSDEQLKSGTASVVCLLNNFYPREAKVQWKVDNALQSGNSQESVTEQDSKDSTYSLSSTLTLSKADYEKHKVYACEVTHQGLSSPVTKSFNRGEC
notes: Human IgG1 N297G; also called 11C5-YKD
[1]
  Kd: 0.0304 nM
  koff: 6.15e-05 s⁻¹
  kon: 2.03e+06 M⁻¹ s⁻¹
[2]
  Kd: 0.0223 nM
  koff: 5.39e-05 s⁻¹
  kon: 2.41e+06 M⁻¹ s⁻¹
[3]
  Kd: 0.0185 nM
  koff: 3.51e-05 s⁻¹
  kon: 1.9e+06 M⁻¹ s⁻¹
[4]
  Kd: 0.0339 nM
  koff: 6.8e-05 s⁻¹
  kon: 2e+06 M⁻¹ s⁻¹
[5]
  Kd: 558 nM
[6]
  Kd: 45.6 nM
[7]
  HEK-Blue, IL-1β, % inhibition at 100 nM (IgG): 100%
  HEK-Blue, IL-1β, IC50 (IgG): 0.513 nM
  HEK-Blue, IL-33, % inhibition at 100 nM (IgG): 100%
  HEK-Blue, IL-33, IC50 (IgG): 2.08 nM
  HEK-Blue, IL-36α, % inhibition at 100 nM (IgG): 100%
  HEK-Blue, IL-36α, IC50 (IgG): 0.622 nM
[8]
  Kd: 0.188 nM
  koff: 0.00056 s⁻¹
  kon: 2.98e+06 M⁻¹ s⁻¹
[9]
  Kd: 0.164 nM
  koff: 0.000324 s⁻¹
  kon: 1.98e+06 M⁻¹ s⁻¹
[10]
  KD (6)/KD (7.4): 10 ratio
  KD (7.4) ratio to YIS: 0.86 ratio
  koff (6) ratio to YIS: 3.8 ratio
[11]
  KD (6)/KD (7.4): 4.8 ratio
  KD (7.4) ratio to YIS: 2.4 ratio
  koff (6) ratio to YIS: 4.7 ratio
[12]
  HEK-Blue, IL-1β, IC50: 0.51 nM
  HEK-Blue, IL-33, % inhibition at 100 nM: 95%
  HEK-Blue, IL-33, IC50: 3.15 nM
  HEK-Blue, IL-36β, IC50: 0.9 nM
  HEKn, IL-36β stimulated IL-8, IC50: 1.39 nM
  NK cells, IL-33+IL-12 stimulated IFN-γ, IC50: 2.93 nM
  PHLF, IL-1α stimulated IL-8, IC50: 9.1 nM
  PHLF, IL-36β stimulated IL-8, IC50: 0.39 nM
  monocytes, IL-1β stimulated IL-6, IC50: 0.063 nM
